Assay results: patent US12371675B2, “Process and microorganism for synthesis of adipic acid from carboxylic acids” (THE GOVERNING COUNCIL OF THE UNIVERSITY OF TORONTO, priority 2015, dated 2025)

B1: BSU2381: OYE protein from Bacillus subtilis subsp. subtilis str. 168 (protein)
chain: MARKLFTPITIKDMTLKNRIVMSPMCMYSSHEKDGKLTPFHMAHYISRAIGQVGLIIVEASAVNPQGRITDQDLGIWSDEHIEGFAKLTEQVKEQGSKIGIQLAHAGRKAELEGDIFAPSAIAFDEQSATPVEMSAEKVKETVQEFKQAAARAKEAGFDVIEIHAAHGYLIHEFLSPLSNHRTDEYGGSPENRYRFLREIIDEVKQVWDGPLFVRVSASDYTDKGLDIADHIGFAKWMKEQGVDLIDCSSGALVHADINVFPGYQVSFAEKIREQADMATGAVGMITDGSMAEEILQNGRADLIFIGRELLRDPFFARTAAKQLNTEIPAPVQYERGW
B2: EREDCT: 2-enoate reductase (ERED) from Clostridium tyrobutyricum (protein)
chain: MKNKSLFEPIKIGKVEVKNKISMAPMGAFGLVDNEGCYNQRAVDYYVERAKGGTGLIITSITKVENEIDKVVPGVIPIISINPGRFIMTSSEMTERVHSYGSKIFLQLTMGFGRSGAPGTLLTSQPVSASSVPNYWDPTVTCRELTTSEVEWIVAKFIQGAAIAQKAGFDGVEIHAVHEGYLLDQFTLSIFNRRTDKYGGDLRGRLQLPIEIVQGIKAQVGSDFPVGLRYSVKSCIKDWRQGGLPDEDYVEKGRDLKEGLESAKILEAAGYDELNTDVGTYDAWYWSHPPLYQKDGLYLPYTKELKKVVKIPVIVAGKLGVPQEAEKALDEGGADMIGLARPLLSDAYWPKKVLSGHPERIRPCIGCHVGCLGRGFEGKPLSCAVNPAAGRERYYEIRPAAIPKKVLIAGGGVAGMEAARMAVLRGHKVTLYESTDQLGGEIVPGSVPDFKIDDRRLLDWYRNEMKELKINVIFNTEVTDKLVGKEQPDVVIVATGANDVKIKLPGIEKDKVSTAVDILNGAKKSGKNVLIVGGGLVGCETALYLAKAGKKVAIVEAKDKILDAGKPIPHMNKIMLEDLIKKYNIKVITGNSLLEVTGDGAVLIDNKFKQQEVYADTIVISIGFKSNRKLYNKLHGKVTDLYLIGDAYQTANIMDAIWSGNEIGLNC
B3: YST4373: OYE protein from Saccharomyces cerevisiae (protein)
chain: MPFVKDFKPQALGDTNLFKPIKIGNNELLHRAVIPPLTRMRAQHPGNIPNRDWAVEYYAQRAQRPGTLIITEGTFPSPQSGGYDNAPGIWSEEQIKEWTKIFKAIHENKSFAWVQLWVLGWAAFPDTLARDGLRYDSASDNVYMNAEQEEKAKKANNPQHSITKDEIKQYVKEYVQAAKNSIAAGADGVEIHSANGYLLNQFLDPHSNNRTDEYGGSIENRARFTLEVVDAVVDAIGPEKVGLRLSPYGVFNSMSGGAETGIVAQYAYVLGELERRAKAGKRLAFVHLVEPRVTNPFLTEGEGEYNGGSNKFAYSIWKGPIIRAGNFALHPEVVREEVKDPRTLIGYGRFFISNPDLVDRLEKGLPLNKYDRDTFYKMSAEGYIDYPTYEEALKLGWDKN
B4: EREDCL: 2-enoate reductase (ERED) from Clostridium ljungdahlii DSM 13528 (protein)
chain: MKNKSLFQPIKIGKMEVKNKISMAPMGAFGLVDNEGCYNQRAIDYYVERAKGGTGLIITSITKVENELDKVVPGIIPVISTNPGRFLMTSSEMTERVHAYGAKIFLQLTMGFGRSGAPGTLLTSQPVSASDIPNYWDPTVTCRALTTSEVEWIVSKFIEGADIAQKADFDGVEIHAVHEGYLLDQFTLSIFNRRTDKYGGDLRGRLQLPIEIVQGIKARLGDDFPVGLRYSVKSCIKDWRQGGLPDEDYLEKGRDLKEGLDAAKILEAAGYDELNTDLGTYDAWYWSHPPIYQKNGLYLPYTKELKKVVKIPVIVAGKLGIPEDAEKALDDKAADMIGLGRPLLADPYWPKKVLSDNSERIRPCIGCHTGCLGRGFEGKPLSCTVNPAVGRERYYEIKPTLTPKKVMVVGGGVAGMEAARIIKMRGHDVTIYEGTDKLGGVIIPGSVPDFKVDDRRLIDWYKSEIKELEVKVNFNTKVTEELVEEEKPDVVIIATGAKEIKINVPGIEKDKVITALELLNDNKKVGNDVLMVGGGLVGCEAALYLAKQGKNVTIVEAKDTLLNSSKPIPHMNKIMLIDLLNMYNVKAITNNSLLEVTDKGAVLINNKFKKQEVSADTVTIAVGFKSDRELYNKLNGNIADLYLIGDAYQSANIMNAIWSANEIGLNC
B5: EREDMT: 2-enoate reductase (ERED) from Moorella thermoacetica ATCC 39073 (protein)
chain: MVVAYTRLFEPIKIGKVEIKNKIAMAPMGVLGLATQDGCFSKRVVDYYVERAKGGTGLIITSVTKVDNEIERFKAGAVPVATANPLHFIATAGELTERVHAYGTKIFLQLGMGFGRVAAPILLESHPVAPSALPNFWDPSITCRELTTAEVETLVQRASEAAEIAVEAGFDGVEIHAMHEGYLLDQFTIALFNRRGDKYGGALEDRLTFPIEIVRAIKDRVGKDFPVVLRFSIKNYIKDWRQGGLPGENFQEKGRDVEEALAAAKILEGAGYDGFDADAGSYDAWYWAHPPVYQKHGCYLPLTQRLKEVVKVPVIVAGRLEIPELAEEALVKGQADMIAIGRGLLTDPYWVNKVMTGRSKNIRPCIGCHDGCLGRGFLGRPLSCTVNPACGREEEYAIDRAPEAKQVMVIGGGVAGMEAARVAALRGHRVSLYEKSDRLGGHVVEAAVPDFKADDGRLLEWYKTELGELQVEIHLNQEVTPEFVEEKNPDVVVVATGSTPAIPDIPGVNKDKVTTVSDLLLGKKQAGDRVVIIGGGLAGCETALWLAQQGKDVTIIEILDDLMRAGIPVPYMNRMMLLDLLKMNGVKWLTETSVLEVTDDGVTLIGKTYQRSPLPADTVILAVGFAADQRLYNALRDKIPNLYLIGDSREPRNILAAIWEGYEVGRGI

How the values were obtained:
[1] = OYE hydrogenation activity screen, NADPH oxidation at 340 nm; type: biochemical; details: 1 mM substrate, 0.25 mM NADPH, 2.5 μg protein; cut-off 0.05 U/mg protein; ND = not detected
How it was run: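 Purified OYEs (2.5 μg) were incubated anaerobically for 20 min at room temperature with 1 mM substrate and 0.25 mM NADPH in 50 mM potassium phosphate pH 7.0, 10 mM NaCl. Activity was followed as NADPH oxidation by the absorbance decrease at 340 nm (ε340=6,200/M·cm).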

[2] = Whole-cell biotransformation with E. coli strains over-expressing OYEs; type: cell-based; details: E. coli over-expressing OYE
[3] = Whole-cell anaerobic biotransformation by E. coli expressing EREDs; type: cell-based; details: 20 mM 2-hexenedioic acid
[4] = Whole-cell biotransformation of muconic acid by E. coli expressing EREDs; type: cell-based; details: 0.7 mM, 24-hr incubation
Experimental: After a 24-hr incubation, no muconic acid or 2-hexenedioic acid were detected in the culture, and a 99% yield of adipic acid was obtained (FIGS. 8a, 8b, and 8c). […] The 3-hexenedioic acid-like compound appears to be an inefficient substrate for these EREDS. This is similar to the mutated 2,4-dienoyl-CoA reductases from E. coli, which catalyze hydrogenation of 2,4-dienoyl CoA into 3-enoyl CoA (Tu, X., Hubbard, P. A., Kim, J. J. P. & Schulz, H. Two distinct proton donors at the active site of Escherichia coli 2,4-dienoyl-CoA reductase are responsible for the formation of different products. Biochemistry 47, 1167-1175 (2008).).

Molecule | Activity [U/mg protein] 2-cyclohexen-1-one [1] [U/mg protein] | hydrogenation of 2-hexenedioic acid into adipic acid [2] | time to complete conversion of 2-hexenedioic acid to adipic acid [3] [h] | yield of adipic acid from trans,trans-muconic acid [4] [%] | further results
B1 | 0.21 | no hydrogenation | – | – | –
B2 | – | – | – | – | production of adipic acid [3]: inactivity
B3 | 0.23 | no hydrogenation | – | – | Activity [U/mg protein] acrolein [1]: 0.17 U/mg protein
B4 | – | – | 48 | 99 | –
B5 | – | – | 6 | 99 | yield of adipic acid from cis,cis-muconic acid [4]: 99%
